Source: the nanobody polyreactivity screen of Harvey et al. (2022)

Test: yeast display, Sf9 membrane polyspecificity reagent, FACS + sequencing; frameworks hold sequencing errors
Procedure, shortened: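 Galactose induction of a Saccharomyces cerevisiae BJ5465 synthetic nanobody display library ran 36–48 hours. The cells were then stained for 1 hour at 4 °C with 10% biotinylated, detergent-solubilized Sf9 membrane reagent, pulled down on streptavidin microbeads and FACS-sorted into low and high (top ~1%) gates on expression and reagent-binding fluorescence. Labels for polyreactivity follow the gate of origin.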

| Sequence | polyreactivity (PSR sort gate) |
| --- | --- |
| QVQLVESVGGLVQAGGSLRLSCAASGFIFASYAMGWYRQAPGKERELVAAISWRGGSTYYADSVKGRFTISRDNAKNTVYLQMNSLKPEDTAVYYCKAYVYVGTGRGYDTLDYWGQGTQVTLSS | low polyreactivity |
| QVQLVESGGGLVQAGGSLRLSCAASGSIFAVYAMGWYRQAPGKERELVAASSTDYADSVKGRFTISRDNAKNTVYLQMNSLKPEDTAVYYCAKVGFGIPGGFYFWGQGTQVTVSS | low polyreactivity |
| QVQLVESGGGLVQAGGSLRLSCAASGRIFRSNAMGWYRQAPRKERELVPAITSSDTSTYYADSVKGRFTISRDNAKNTVYLQMKSLKPEDTAVYYCAADFKPTGTNEPKELDYWGQGTQVTVSS | low polyreactivity |
| QVQLVESGGGLVQAGGSLRLSCAASGRIFDRNAMGWYRQAPGKERELVARIDPGDDTNYADSVKGRFTISRDNAKHTVYLQMHSLKPEDTAVYYCATDPDYVLFRTAYYEYDYWGQGTQVTVSS | low polyreactivity |
| QVQLVESGGGLGQAGGSLRLSCAASGSTFKFYAMGWYRHAPGKERELVATISWTGGSTYYADSVKGRFTISRDNAKNTVYLQTNSLKPEDTAVYYCANRKTSYPVIWYTVNGRHYYWGQGTQVTVSS | low polyreactivity |
| QVQLVESGGGLVQAGGSLRVSCAASVRTLFGNALGWYRQAPGKERELLAAISFSGGRTEYADSVKGRFTISRDNAMNTVYLQMNSLKPEDTAVYYCAARTYSAPRNRYYYWGQGTQVTVSS | high polyreactivity |
| QVQLVESGGGLVQAGGSLRVSCAASGRTFIKYAMGWYRQAPGKERELVAAISRNGGSTNYADSVKGRFTISRDNAKNTVYFQMNSLKPEDTAVYYCAAVGTVSRTVGYNYWGQGTQVTVSS | high polyreactivity |
| QVQLVESGGGLVQAGGSLRLSCAASGFIFFYAMGWYRQAPGKERELVASIDSGVSTDYADSVKGRFTISRDNAKNTDYLQMNSLKTEDTAVYYCAADYRAPLEYWGQGTQVTVSS | low polyreactivity |
| QVQLVESGVGIVQAGGSLRLSCAASGRIFARNAMVWYRHAPGKERELVATIRVGGGSTYYADSVKGRFTISRDNAKNTVYLQMNSLKPEDTAVYYCAVRQLYSYPGDRRGYYWGQGTQVTVSS | low polyreactivity |
| QVQLVESGGGLVQAGGSLRLSCAASGRTFAYYTMGWYRQAPGKERELVARISGYGGSTYYADSVKGRFTLSRDNAKNTVYLQMNSLKPEDTAVYYCNVVGAYYRYDYWGQGTQVTVSS | high polyreactivity |
| QVQLVESGGGLVQAGGSLRLSCAASGSIFLGNAMGWYRQAPGKERELVAAISSITGRTYYAESVKGRFTISRDNAKNTVYLQMNSLKPEDTAVYYCNKVKRSFIVKTDDYWGQGTQVTVSS | high polyreactivity |
| QVQLVESGGGLVQAGGSLRLSCAASGITFRYYAMGWYRQAPGKERELVATISSSGARTYYADSVKGRFTISRDNAKNTVYFQINSLKPEDTAVYYCNAVTFTLHSQPYDYWGQGTQVTVSS | high polyreactivity |
| QVQLVESGGGLVQAGGSLRLSCAASGRIFWRYAMGWYRQAPGQERELVAAISRGGGRTYYADSVKGRFTSSRDNAKNTVYLQMNSLKPEDTAVYYCAARSTQGRFENWGQGTQVTVSS | high polyreactivity |
| QVQLVESGGGLVQAGGSLRLSCAASGSIFEPNAMGWYRQAPGKVRELVAAITSGGTTYADSVKGRFTISRDNAKNTVYLQMNSLKPEETAVYYCAADYSFVYYYPFDYWGQGTQVTVSS | low polyreactivity |
| QVQLVESGGGLVQAGGSLRLSCAASGFTFYSYAMGWYRQAPGKERELVATISRNGGTTRYADSVKGRFTISRDNAKNTVYLQMNSLKPEDTAVYYCNAVYYAYSRHSYAMDYWGQGTQVTVSS | high polyreactivity |
| QVQLVESGGGLVQAGGSLRLSCAASGRIFYNYVMGWYRQAPGKERELVAAISDSGGSTYYADSVKGRFTISRDNAKNTVYLQMNSLKPEDTAVYYCNKVRPRKFWDYYYWGQGTQVTVSS | high polyreactivity |
| QVQLVESGGGLVQAGGSLRLSCAAYGINFYKYAMVWSRQAPGQERELVASITKSAGSTNYADSDKGRFTISRDNAMNTVYLQMNSLKPEDTAVYYCAARRFTFNLFDYWGQGTQVTVSS | high polyreactivity |
| QVQLVESGGGLVQAGGSLRLSCAASGITFATNAMGWYRQAPGKERELVAGITSGGSTYYADSVKGRFTISRDNAKNTVYLQMNSLKPEDTAVYYCNTAVKVERDYWGQGTQVTVSS | low polyreactivity |
| QVQLVESGGGLVQAGGSLRLSCAASGRTFTIYAMGWYRQAPGKEREFVAGITTGGSSTYYADSVKGRFTISRDNAKNTVYLQMNILKPEDTAVYYCAAVSYAWYDYWGQGTHVTVSS | low polyreactivity |
| QVQLVESGGGLVQAGGSLRLSCAASGRIFWGYAMGWYRQAPGKERELVAAITSGGSTYYADSVKGRFTFSRDNAKNTVYLQMNSLKPEDTAVYYCAAYYVLKLRYGHRYYYWGQGTQVTVSS | high polyreactivity |
| QVQLVESGGGLVQAGGSLRLSCAASGITFRGYAMGWYRQAPGKERELVADITWNGGSTYYADSVKGRFTISRDNAKNTVYLQMNSLKPEDPAVYYCAADGYRIYWSSYRFYYWGQGTQVTVSS | high polyreactivity |
| QVQLVESGGGLVQAGGSLRLSCAASGFTFWYYAMGWYRQAPGKERELVAAISRSGTSTYYADSVKGRFTISRDNAKNTVFLQMNCLKPEDSAVYYCNVLRVNSITYLMDYWVQGTQVTVSS | high polyreactivity |
